Here are results for one molecule from patent publication US20180273626A1 (published 2018).

The target of this assay is T1, FcεRIα (human, UniProt P12319 26-201).
T1 chain: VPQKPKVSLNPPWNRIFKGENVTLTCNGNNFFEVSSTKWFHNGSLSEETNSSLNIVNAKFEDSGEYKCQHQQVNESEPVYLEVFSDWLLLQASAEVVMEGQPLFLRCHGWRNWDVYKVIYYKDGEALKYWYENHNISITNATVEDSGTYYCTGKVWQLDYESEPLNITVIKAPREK
In words: SPR; mammalian derived.

B1: IgE-R419N-Fc3-4 (other)
chain: CADSNPRGVSAYLSRPSPFDLFIRKSPTITCLVVDLAPSKGTVNLTWSRASGKPVNHSTRKEEKQRNGTLTVTSTLPVGTRDWIEGETYQCNVTHPHLPRALMRSTTKTSGPRAAPEVYAFATPEWPGSRDKRTLACLIQNFMPEDISVQWLHNEVQLPDARHSTTQPRKTKGSGFFVFSRLEVTRAEWEQKDEFICRAVHEAASPSQTVQRAVSVNP
modifications: additional N-linked glycan at N419 (Asn-92 of SEQ ID NO: 2)
For B1, binding was characterised by a dissociation constant (Kd) of 2.26 nM.
